Reference: US20110038861 (published 2011)
Read-outs that look alike come from different tables or passages of the source.

B1: 2324 (10B10.2E6) (antibody, V domains shown)
VH: VTLKESGPGILKPSQTLSLTCSFSGFSLSTSGMGVGWIRQSSGKGLEWLAHIWWDDDKYYNPSLKSQLTISKDTSRNQVFLKITSVDTADTATYYCARRGVRHRDYFDYWGQGTTLTVSS
VL: DVLMTQTPLSLPVSLGDQASISCRSSQSIVHSNGNTYLEWYLQKPGQSPKLLIYKVSNRFSGVPDRFSGSGSGTDFTLKISRVEAEDLGVYYCFQGSRVPLTFGAGTKLELKR
B2: Mouse 2286 Fab (antibody, V domains shown)
VH: EVKLLESGGGLVQPGGSLKLSCAASGFDFSRYWMNWVRQAPGKGLEWIGEINPDSSTINYTPSLKDKFIISRDNAKNTLYLQMSKVRSEDTALYYCARQMGYWGQGTTLTVSS
VL: DIQMTQTTSSLSASLGDRVTISCSASQGISNYLNWFQQKPDGTVKLLIYYTSSLHSGVPSRFSGSGSGTDYSLTISNLEPEDIATYYCQQYRKLPYTFGGGTKLEIKR
B3: 2286 (8A1.2A1) (antibody, V domains shown)
VH: B2 VH
VL: B2 VL
B4: Humanized 2286 Fab (O8; VH3) (antibody, V domains shown)
VH: EVQLVESGGGLVQPGGSLRLSCAASYWMNWVRQAPGKGLEWVSEINPDSSTINYTPSLKDRFTISRDNAKNTLYLQMNSLRAEDTAVYYCARQMGYWGQGTTLTVSS
VL: DIQMTQSPSSLSASVGDRVTITCSASQGISNYLNWYQQKPGKAPKLLIYYTSSLHSGVPSRFSGSGSGTDFTFTISSLQPEDIATYYCQQYRKLPYTFGGGTKVEIKR
B5: Humanized 2286 Fab (O8; VH4) (antibody, V domains shown)
VH: QVQLQESGPGLVKPSETLSLTCTVSYWMNWIRQPPGKGLEWIGEINPDSSTINYTPSLKDRVTISKDTSKNQFSLKLSSVTAADTAVYYCARQMGYWGQGTLVTVSS
VL: B4 VL

What was measured:
Abeta 1-40 [1] = target: Abeta 1-40 (human)
Sequence of Abeta 1-40 (human) (P05067 672-711): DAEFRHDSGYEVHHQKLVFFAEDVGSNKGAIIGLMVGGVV

beta-APP = beta-APP (human); assay: ELISA
Sequence of beta-APP (human) (chain, as listed by the source): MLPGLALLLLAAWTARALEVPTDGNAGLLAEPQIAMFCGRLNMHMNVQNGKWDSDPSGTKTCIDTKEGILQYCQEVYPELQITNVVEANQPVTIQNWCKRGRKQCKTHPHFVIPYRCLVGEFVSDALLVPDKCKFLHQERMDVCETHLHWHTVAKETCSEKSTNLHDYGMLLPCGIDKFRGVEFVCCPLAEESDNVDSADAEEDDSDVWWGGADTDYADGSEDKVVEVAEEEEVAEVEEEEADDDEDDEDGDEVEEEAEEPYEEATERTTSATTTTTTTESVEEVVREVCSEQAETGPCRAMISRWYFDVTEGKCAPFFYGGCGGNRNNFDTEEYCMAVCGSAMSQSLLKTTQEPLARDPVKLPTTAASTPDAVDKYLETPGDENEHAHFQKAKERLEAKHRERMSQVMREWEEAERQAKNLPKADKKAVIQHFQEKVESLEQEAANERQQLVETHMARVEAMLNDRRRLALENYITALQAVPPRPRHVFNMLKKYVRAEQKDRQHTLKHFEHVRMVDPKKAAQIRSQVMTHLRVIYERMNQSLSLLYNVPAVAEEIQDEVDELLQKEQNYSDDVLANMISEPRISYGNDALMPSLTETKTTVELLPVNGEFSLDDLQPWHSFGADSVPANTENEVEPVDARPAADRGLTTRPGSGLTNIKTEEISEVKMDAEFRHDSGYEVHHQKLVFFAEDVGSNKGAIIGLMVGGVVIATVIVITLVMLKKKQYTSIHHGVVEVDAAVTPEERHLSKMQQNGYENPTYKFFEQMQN

Abeta 1-40 [2] = target: Abeta 1-40 (human); assay: SPR
Abeta 1-40 [3] = target: Abeta 1-40 (human); remark: listed apart in the source

Binder	Kd (Abeta 1-40 [1])	binding result (beta-APP)	Kd (Abeta 1-40 [2])	Kd (Abeta 1-40 [3])
B1	0.9 nM	no binding	–	–
B2	–	–	76 nM	–
B3	–	no binding	–	2.7 nM
B4	–	–	500 nM	–
B5	–	–	500 nM	–
